Test results as given in patent US20240360228A1 (BIOLEGEND, published 2024).
Residue numbers refer to the chain shown, from its start. One block for each binder: values may come before it.

Columns and labels:
human CCR8 [1] = target: T1, human CCR8 (human, UniProt P51685 1-355); experiment: flow blocking, PBMC CCR8+CD4+; competitor PE-AB1
T1 construct: Native CCR8 on human PBMC (CCR8+ CD3+ or CCR8+ CD4+ lymphocytes); also called chemokine (C-C motif) receptor 8
Experimental: (§1) For blocking studies, 100 μL of the cell suspension were incubated with 10 μg purified isotype control, AB1, AB2, AB3, AB4, AB5, AB8, AB9, AB10, AB11, AB12, AB13, AB14, AB15, and Commercial ABI antibodies, or isotype control, as blocking agents.
(§2) After incubation with the blocking agent, the cells were incubated with 0.25 μg of the indicated PE-conjugated antibody plus anti-human CD4 APC or anti-human CD3 for another 15 minutes in the dark and then washed 2 times with Cell Staining Buffer, and acquired in a FACSCanto II flow cytometer (BD Biosciences); the data was analyzed using FCS Express (De Novo Software); MFI correspond to the CCR8+ CD4+ lymphocytes or CCR8+ CD3+ lymphocytes.
(§3) Percentage original MFI was calculated by dividing the MFI of samples blocked with AB1, AB2, AB3, AB4, AB5, AB6, AB7, AB8, AB9, AB10, AB11, AB12, AB13, AB14, AB15, and Commercial ABI antibodies, by the MFI of samples blocked with the corresponding isotype control. This value was subtracted from 100 to get a blocking percentage. The formula is shown below: […]

human CCR8 [2] = target: T1, human CCR8; experiment: flow blocking, PBMC CCR8+CD4+; competitor PE-AB2
Experimental: as §1, §2, §3

human CCR8 [3] = target: T1, human CCR8; experiment: flow blocking, PBMC CCR8+CD4+; competitor PE-AB3
Experimental: as §1, §2, §3

human CCR8 [4] = target: T1, human CCR8; experiment: flow blocking, PBMC CCR8+CD4+; competitor PE-AB4
Experimental: as §1, §2, §3

human CCR8 [5] = target: T1, human CCR8; experiment: flow blocking, PBMC CCR8+CD4+; competitor PE-AB5
Experimental: as §1, §2, §3

human CCR8 [6] = target: T1, human CCR8; experiment: flow blocking, PBMC CCR8+CD4+; competitor PE-AB6
Experimental: as §1, §2

human CCR8 [7] = target: T1, human CCR8; experiment: flow blocking, PBMC CCR8+CD4+; competitor PE-433H
Experimental: as §1, §2

human CCR8 [8] = target: T1, human CCR8; experiment: flow blocking, PBMC CCR8+CD4+; competitor PE-AB10
Experimental: as §1, §2, §3

human CCR8 [9] = target: T1, human CCR8; experiment: flow blocking, PBMC CCR8+CD4+; competitor PE-AB11
Experimental: as §1, §2, §3

human CCR8 [10] = target: T1, human CCR8; experiment: flow blocking, PBMC CCR8+CD4+; competitor PE-AB12
Experimental: as §1, §2, §3

human CCR8 [11] = target: T1, human CCR8; experiment: flow blocking, PBMC CCR8+CD4+; competitor PE-AB13
Experimental: as §1, §2

human CCR8 [12] = target: T1, human CCR8; experiment: flow blocking, PBMC CCR8+CD4+; competitor PE-AB14
Experimental: as §1, §2

human CCR8 [13] = target: T1, human CCR8; experiment: flow blocking, PBMC CCR8+CD4+; competitor PE-AB15
Experimental: as §1, §2, §3

T1 sequence (P51685 whole entry): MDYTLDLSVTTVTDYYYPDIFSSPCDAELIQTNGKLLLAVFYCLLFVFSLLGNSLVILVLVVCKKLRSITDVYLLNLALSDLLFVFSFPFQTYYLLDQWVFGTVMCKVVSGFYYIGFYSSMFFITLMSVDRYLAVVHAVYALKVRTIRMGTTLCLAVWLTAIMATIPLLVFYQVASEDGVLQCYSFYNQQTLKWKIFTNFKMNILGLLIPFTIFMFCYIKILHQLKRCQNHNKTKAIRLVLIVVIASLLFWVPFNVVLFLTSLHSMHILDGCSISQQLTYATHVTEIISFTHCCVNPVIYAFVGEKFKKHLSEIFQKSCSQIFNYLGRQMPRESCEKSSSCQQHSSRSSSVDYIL

% Blocking (human CCR8 [1]): 98.7% | % Positive cells (human CCR8 [1]): 0.02% | % Blocking (human CCR8 [2]): 98.2% | % Positive cells (human CCR8 [2]): 0.03% | % Blocking (human CCR8 [3]): 97.1% | % Positive cells (human CCR8 [3]): 0.05% | % Blocking (human CCR8 [4]): 96.1% | % Positive cells (human CCR8 [4]): 0.07% | % Blocking (human CCR8 [5]): 89.6% | % Positive cells (human CCR8 [5]): 0.21% | % Blocking (human CCR8 [6]): 86.6% | % Positive cells (human CCR8 [6]): 0.27% | % Blocking (human CCR8 [7]): 14.8% | % Positive cells (human CCR8 [7]): 1.5% | % Blocking (human CCR8 [8]): 3.38% | % Positive cells (human CCR8 [8]): 1.43% | % Blocking (human CCR8 [9]): -5.61% | % Positive cells (human CCR8 [9]): 2.07% | % Blocking (human CCR8 [10]): -2.78% | % Positive cells (human CCR8 [10]): 1.85% | % Blocking (human CCR8 [11]): 10.1% | % Positive cells (human CCR8 [11]): 1.78% | % Blocking (human CCR8 [12]): 1.54% | % Positive cells (human CCR8 [12]): 1.28% | % Blocking (human CCR8 [13]): -30.2% | % Positive cells (human CCR8 [13]): 1.68%
B1: AB1 (antibody, V domains shown)
VH: QVQLKESGPGLVKPSETLSLTCTVSGFSLTSYHISWVRQPPGKGLEWMGVIWGDGSKTYNSALKSRLSISRDTSKSQVFLKMRSLKTEDTATYYCARGGDSGFAYWGQGTLVTVSS
VL: DIQMTQSPASLSASLEEIVTITCQASQDIGNWLSWYQQKPGKSPQLLIYGTTNLADGVPSRFSGSRSGTQYSLKISRLQVEDIGIYYCLQAYSVPLTFGSGTKLEIK
notes: Hybridoma monoclonal (mouse or rat); Same VH/VL entries as AB2; also called antibody 1; clone 1

% Blocking (human CCR8 [1]): 93.5% | % Positive cells (human CCR8 [1]): 0.1% | % Blocking (human CCR8 [2]): 98.8% | % Positive cells (human CCR8 [2]): 0.02% | % Blocking (human CCR8 [3]): 98.2% | % Positive cells (human CCR8 [3]): 0.03% | % Blocking (human CCR8 [4]): 96.6% | % Positive cells (human CCR8 [4]): 0.06% | % Blocking (human CCR8 [5]): 90.1% | % Positive cells (human CCR8 [5]): 0.2% | % Blocking (human CCR8 [6]): 93.6% | % Positive cells (human CCR8 [6]): 0.13% | % Blocking (human CCR8 [7]): 2.84% | % Positive cells (human CCR8 [7]): 1.71% | % Blocking (human CCR8 [8]): 2.7% | % Positive cells (human CCR8 [8]): 1.44% | % Blocking (human CCR8 [9]): -3.57% | % Positive cells (human CCR8 [9]): 2.03% | % Blocking (human CCR8 [10]): -8.89% | % Positive cells (human CCR8 [10]): 1.96% | % Blocking (human CCR8 [11]): -6.06% | % Positive cells (human CCR8 [11]): 2.1% | % Blocking (human CCR8 [12]): -15.4% | % Positive cells (human CCR8 [12]): 1.5% | % Blocking (human CCR8 [13]): -18.6% | % Positive cells (human CCR8 [13]): 1.53%
B2: AB2 (antibody, V domains shown)
VH: B1 VH
VL: B1 VL
notes: Hybridoma monoclonal; Same VH/VL entries as AB1; also called antibody 2; clone 2

% Blocking (human CCR8 [1]): 97.4% | % Positive cells (human CCR8 [1]): 0.04% | % Blocking (human CCR8 [2]): 98.8% | % Positive cells (human CCR8 [2]): 0.02% | % Blocking (human CCR8 [3]): 100% | % Positive cells (human CCR8 [3]): 0% | % Blocking (human CCR8 [4]): 93.3% | % Positive cells (human CCR8 [4]): 0.12% | % Blocking (human CCR8 [5]): 85.2% | % Positive cells (human CCR8 [5]): 0.3% | % Blocking (human CCR8 [6]): 84.7% | % Positive cells (human CCR8 [6]): 0.31% | % Blocking (human CCR8 [7]): 7.39% | % Positive cells (human CCR8 [7]): 1.63% | % Blocking (human CCR8 [8]): -9.46% | % Positive cells (human CCR8 [8]): 1.62% | % Blocking (human CCR8 [9]): 4.59% | % Positive cells (human CCR8 [9]): 1.87% | % Blocking (human CCR8 [10]): 1.67% | % Positive cells (human CCR8 [10]): 1.77% | % Blocking (human CCR8 [11]): 21.2% | % Positive cells (human CCR8 [11]): 1.56% | % Blocking (human CCR8 [12]): -12.3% | % Positive cells (human CCR8 [12]): 1.46% | % Blocking (human CCR8 [13]): -7.75% | % Positive cells (human CCR8 [13]): 1.39%
B3: AB3 (antibody, V domains shown)
VH: B1 VH with S56K, K57T, R83N
VL: B1 VL
notes: Hybridoma monoclonal; also called antibody 3; clone 3
